Consider one substance from PMC12072117.

In this assay the target is cyclin-dependent kinase 1 (CDK1) (Xenopus laevis (endogenous in oocyte CSF extract)).

“glutathione S-transferase-tagged cell division cycle 6 (GST-CDC6) (natural protein)”: the histone H1 kinase activity of CDC6-depleted CSF extract with 10 to 20 nM GST-CDC6 added (about 40% less with 10 nM, 45% less with 20 nM) stood at 45 % less.
